Test results reported in patent publication US20210388087A1 (Chugai, published 2021).
Positions count from the first letter of the chain named. In names and notes the source's numbering stands. Blank lines part the entries; values can stand above or below the binder they belong to.

Target: T1, Human CD3eg linker (human)
T1 construct: Single-chain construct; also called recombinant human CD3
T1 chain: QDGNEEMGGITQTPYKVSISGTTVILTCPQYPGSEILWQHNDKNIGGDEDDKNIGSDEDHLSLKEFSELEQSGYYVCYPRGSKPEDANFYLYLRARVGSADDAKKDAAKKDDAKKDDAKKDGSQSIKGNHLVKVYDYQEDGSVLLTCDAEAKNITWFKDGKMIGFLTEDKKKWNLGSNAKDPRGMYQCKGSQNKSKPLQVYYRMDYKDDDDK
Assay: SPR; fold vs parent H183/L072

B1: H183/L072 VL N53R (antibody, name in Kabat numbering, V domains shown)
VH: QVQLVESGGGLVQPGRSLRLSCAASGFTFSNAWMHWVRQAPGKGLEWVAQIKDKGNAYAAYYAPSVKGRFTISRDDSKNSIYLQMNSLKTEDTAVYYCHYVHYASASTVLPAFGVDAWGQGTTVTVSS
VL: DIVMTQSPLSLPVTPGEPASISCQASQELVHMNRNTYLHWYQQKPGQAPRLLIYKVSRRFPGVPDRFSGSGSGTDFTLKISRVEAEDVGVYYCAQGTSVPFTFGQGTKLEIK
fold change of affinity: 1.8 fold

B6: H183/L072 VL P56A (antibody, name in Kabat numbering, V domains shown)
VH: B1 VH
VL: B1 VL with R58N, P61A
fold change of affinity: 4.1 fold

B10: H183/L072 VL P56H (antibody, name in Kabat numbering, V domains shown)
VH: B1 VH
VL: B1 VL with R58N, P61H
fold change of affinity: 2.9 fold

B12: H183/L072 VL P56E (antibody, name in Kabat numbering, V domains shown)
VH: B1 VH
VL: B1 VL with R58N, P61E
fold change of affinity: 3.4 fold

B13: H183/L072 VL P56F (antibody, name in Kabat numbering, V domains shown)
VH: B1 VH
VL: B1 VL with R58N, P61F
fold change of affinity: 3.3 fold

B16: H183/L072 VL N53W (antibody, name in Kabat numbering, V domains shown)
VH: B1 VH
VL: B1 VL with R58W
fold change of affinity: 0.7 fold

B17: H183/L072 VL P56D (antibody, name in Kabat numbering, V domains shown)
VH: B1 VH
VL: B1 VL with R58N, P61D
fold change of affinity: 3 fold

B19: H183/L072 VL N53S (antibody, name in Kabat numbering, V domains shown)
VH: B1 VH
VL: B1 VL with R58S
fold change of affinity: 0.9 fold

B20: H183/L072 VL P56M (antibody, name in Kabat numbering, V domains shown)
VH: B1 VH
VL: B1 VL with R58N, P61M
fold change of affinity: 3.9 fold

B21: H183/L072 VL N53T (antibody, name in Kabat numbering, V domains shown)
VH: B1 VH
VL: B1 VL with R58T
fold change of affinity: 0.4 fold

B22: H183/L072 VL P56L (antibody, name in Kabat numbering, V domains shown)
VH: B1 VH
VL: B1 VL with R58N, P61L
fold change of affinity: 3.1 fold

B23: H183/L072 VL P56K (antibody, name in Kabat numbering, V domains shown)
VH: B1 VH
VL: B1 VL with R58N, P61K
fold change of affinity: 5.6 fold

B26: H183/L072 VL P56G (antibody, name in Kabat numbering, V domains shown)
VH: B1 VH
VL: B1 VL with R58N, P61G
fold change of affinity: 3.7 fold

B30: H183/L072 VL N53V (antibody, name in Kabat numbering, V domains shown)
VH: B1 VH
VL: B1 VL with R58V
fold change of affinity: 0.3 fold

B33: H183/L072 VL P56I (antibody, name in Kabat numbering, V domains shown)
VH: B1 VH
VL: B1 VL with R58N, P61I
fold change of affinity: 3.1 fold

Second part, the binder after the results:

fold change of affinity: 3.9 fold
B2: H183/L072 VL P56T (antibody, name in Kabat numbering, V domains shown)
VH: B1 VH
VL: B1 VL with R58N, P61T

fold change of affinity: 0 fold
B3: H183/L072 VL P95S (antibody, name in Kabat numbering, V domains shown)
VH: B1 VH
VL: B1 VL with R58N, P100S

fold change of affinity: 0.9 fold
B4: H183/L072 VL Q24F (antibody, name in Kabat numbering, V domains shown)
VH: B1 VH
VL: B1 VL with Q24F, R58N

fold change of affinity: 1.2 fold
B5: H183/L072 VL Q24D (antibody, name in Kabat numbering, V domains shown)
VH: B1 VH
VL: B1 VL with Q24D, R58N

fold change of affinity: 0 fold
B7: H183/L072 VL P95D (antibody, name in Kabat numbering, V domains shown)
VH: B1 VH
VL: B1 VL with R58N, P100D

fold change of affinity: 3 fold
B8: H183/L072 VL P56W (antibody, name in Kabat numbering, V domains shown)
VH: B1 VH
VL: B1 VL with R58N, P61W

fold change of affinity: 0 fold
B9: H183/L072 VL Q24E (antibody, name in Kabat numbering, V domains shown)
VH: B1 VH
VL: B1 VL with Q24E, R58N

fold change of affinity: 0 fold
B11: H183/L072 VL P95Q (antibody, name in Kabat numbering, V domains shown)
VH: B1 VH
VL: B1 VL with R58N, P100Q

fold change of affinity: 1.1 fold
B14: H183/L072 VL Q24A (antibody, name in Kabat numbering, V domains shown)
VH: B1 VH
VL: B1 VL with Q24A, R58N

fold change of affinity: 0 fold
B15: H183/L072 VL P95T (antibody, name in Kabat numbering, V domains shown)
VH: B1 VH
VL: B1 VL with R58N, P100T

fold change of affinity: 0 fold
B18: H183/L072 VL P95H (antibody, name in Kabat numbering, V domains shown)
VH: B1 VH
VL: B1 VL with R58N, P100H

fold change of affinity: 3.4 fold
B24: H183/L072 VL P56V (antibody, name in Kabat numbering, V domains shown)
VH: B1 VH
VL: B1 VL with R58N, P61V

fold change of affinity: 3.3 fold
B25: H183/L072 VL P56N (antibody, name in Kabat numbering, V domains shown)
VH: B1 VH
VL: B1 VL with R58N, P61N

fold change of affinity: 5.5 fold
B27: H183/L072 VL P56R (antibody, name in Kabat numbering, V domains shown)
VH: B1 VH
VL: B1 VL with R58N, P61R

fold change of affinity: 0 fold
B28: H183/L072 VL P95E (antibody, name in Kabat numbering, V domains shown)
VH: B1 VH
VL: B1 VL with R58N, P100E

fold change of affinity: 4.1 fold
B29: H183/L072 VL P56S (antibody, name in Kabat numbering, V domains shown)
VH: B1 VH
VL: B1 VL with R58N, P61S

fold change of affinity: 0 fold
B31: H183/L072 VL P95K (antibody, name in Kabat numbering, V domains shown)
VH: B1 VH
VL: B1 VL with R58N, P100K

fold change of affinity: 3.7 fold
B32: H183/L072 VL P56Q (antibody, name in Kabat numbering, V domains shown)
VH: B1 VH
VL: B1 VL with R58N, P61Q
